The results in this text go back to the Immune Epitope Database (IEDB).

What is called IC50 is the concentration that gives 50% inhibition.

Where only a bound is given, the exact number is not on record here.

Some targets named below: HLA-B*44:03; HLA-A*02:01; HLA-B*07:02; HLA-B*53:01; HLA-B*35:01; HLA-B*57:01.
Common to all, as to assay: IEDB peptide-MHC binding, purified MHC/competitive/radioactivity; ≥ and ≤ were set here for values at or beyond the usual limits of such assays
Settings in all cases: source organism: Bordetella pertussis

On to DGPPSRPTT, for which the IC50 with HLA-B*44:03 is at least 70.1 µM.
As to FQTYALTGI, the IC50 with HLA-A*02:01 amounted to 1.32 µM.
For the sequence LPSIPGTSI, in the assay with HLA-B*07:02, the IC50 worked out at 0.116 µM.
Take NPGSLIAEV: in the assay with HLA-B*53:01, the IC50 is 58.7 µM.
Turning to PAVALPRPL, the IC50 in the assay with HLA-B*07:02 was at least 77.5 µM.
In the case of QAAPLSITL, the results for the IC50 with HLA-B*53:01 and with HLA-B*35:01 were 4.49 µM and 4.46 µM, respectively.
For RSRVRALAW, the IC50 in the assay with HLA-B*57:01 is 0.0121 µM.
With TAFMSGRSL, the IC50 with HLA-B*07:02 is 56.1 µM.
As for TSKQDERNY, in the assay with HLA-B*57:01, the IC50 was at least 70.4 µM.
VGGGEHGRW: the IC50 with HLA-B*57:01 came to 57.9 µM.
YEAGFSLGS: the IC50 with HLA-B*44:03 turned out to be 35.4 µM.
